Consider 23 molecules from patent publication US20150203577A1 (Chugai, published 2015).

Positions count from the first letter of the chain named.

To fix the notation:
T1: mouse FcγRIII (mouse, UniProt P08508 31-215)
T1 construct: Extracellular domain with C-terminal His tag; also called mFcγRIII; mFcgRIII
T1 chain: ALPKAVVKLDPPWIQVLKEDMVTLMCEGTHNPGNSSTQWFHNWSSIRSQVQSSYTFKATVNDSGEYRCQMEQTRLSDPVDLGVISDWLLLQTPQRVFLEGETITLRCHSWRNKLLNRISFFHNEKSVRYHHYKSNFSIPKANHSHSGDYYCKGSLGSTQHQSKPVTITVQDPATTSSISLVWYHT

T2: mouse FcγRII (mouse, UniProt P08101 30-210)
T2 construct: Extracellular domain with C-terminal His tag; also called mFcγRII; mFcgRII
T2 sequence: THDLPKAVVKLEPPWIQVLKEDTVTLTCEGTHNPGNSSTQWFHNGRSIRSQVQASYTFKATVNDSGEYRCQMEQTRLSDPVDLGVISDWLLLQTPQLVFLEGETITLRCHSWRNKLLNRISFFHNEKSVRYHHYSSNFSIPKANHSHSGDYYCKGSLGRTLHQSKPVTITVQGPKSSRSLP

B1: MB774 (antibody, mouse IgG1, kappa)
heavy: QVQLQESGPGLVKPSETLSLTCAVSGHSISHDHAWSWVRQPPGEGLEWIGFISYSGITNYNPSLQGRVTISRDNSKNTLYLQMNSLRAEDTAVYYCARSLARTTAMDYWGEGTLVTVSSAKTTPPSVYPLAPGSAAQTNSMVTLGCLVKGYFPEPVTVTWNSGSLSSGVHTFPAVLQSDLYTLSSSVTVPSSTWPSETVTCNVAHPASSTKVDKKIVPRDCGCKPCICEPNEVELVFIFPPKPKDVLTITLTPKVTCVVVDISKDDPEVQFSWFVDDVEVHTAQTQPREEQFNSTFRSVSELPIMHQDWLNGKEFKCRVNSAAFPAPIVKTISKTKGRPKAPQVYTIPPPKEQMAKDKVSLTCMITDFFPEDITVEWQWNGQPAENYKNTQPIMDTDGSYFVYSKLNVQKSNWEAGNTFTCSVLHEGLHNHHTEKSLSHSPGK
light: not shown
notes: CH name; VH H237 + CH, L chain MRAL-k0; copies: 2 + 2
B2: MB789 (antibody, mouse IgG1, kappa)
heavy: B1 heavy with Q291L, A322D, V329E, K330R
light: not shown
notes: as for B1
B3: MB790 (antibody, mouse IgG1, kappa)
heavy: B1 heavy with N320D, A322D, V329E, K330R
light: not shown
notes: as for B1
B4: MB791 (antibody, mouse IgG1, kappa)
heavy: B1 heavy with Q291L, N320D, A322D, V329E, K330R
light: not shown
notes: as for B1
B5: MB782 (antibody, mouse IgG1, kappa)
heavy: B1 heavy with Q291L, N320D, V329E
light: not shown
notes: as for B1
B6: MB784 (antibody, mouse IgG1, kappa)
heavy: B1 heavy with Q291L, V329E, K330R
light: not shown
notes: as for B1
B7: MB775 (antibody, mouse IgG1, kappa)
heavy: B1 heavy with V329E, T331N
light: not shown
notes: as for B1
B8: MB788 (antibody, mouse IgG1, kappa)
heavy: B1 heavy with Q291L, N320D, V329E, K330R
light: not shown
notes: as for B1
B9: MB811 (antibody, mouse IgG1, kappa)
heavy: B1 heavy with Q291L, V329Y
light: not shown
notes: as for B1
B10: MB779 (antibody, mouse IgG1, kappa)
heavy: B1 heavy with V329E, S333W
light: not shown
notes: as for B1
B11: MB783 (antibody, mouse IgG1, kappa)
heavy: B1 heavy with Q291L, A322D, V329E
light: not shown
notes: as for B1
B12: MB777 (antibody, mouse IgG1, kappa)
heavy: B1 heavy with V329E, S333I
light: not shown
notes: as for B1
B13: MB786 (antibody, mouse IgG1, kappa)
heavy: B1 heavy with A322D, V329E, K330R
light: not shown
notes: as for B1
B14: MB780 (antibody, mouse IgG1, kappa)
heavy: B1 heavy with A323G, V329E
light: not shown
notes: as for B1
B15: MB776 (antibody, mouse IgG1, kappa)
heavy: B1 heavy with V329E, T331Y
light: not shown
notes: as for B1
B16: MB810 (antibody, mouse IgG1, kappa)
heavy: B1 heavy with Q291L, P327Y, V329E
light: not shown
notes: as for B1
B17: MB807 (antibody, mouse IgG1, kappa)
heavy: B1 heavy with Q291L, N320M, V329E
light: not shown
notes: as for B1
B18: MB809 (antibody, mouse IgG1, kappa)
heavy: B1 heavy with Q291L, P327F, V329E
light: not shown
notes: as for B1
B19: MB787 (antibody, mouse IgG1, kappa)
heavy: B1 heavy with Q291L, N320D, A322D, V329E
light: not shown
notes: as for B1
B20: MB781 (antibody, mouse IgG1, kappa)
heavy: B1 heavy with A326K, V329E
light: not shown
notes: as for B1
B21: MB785 (antibody, mouse IgG1, kappa)
heavy: B1 heavy with N320D, A322D, V329E
light: not shown
notes: as for B1
B22: MB808 (antibody, mouse IgG1, kappa)
heavy: B1 heavy with Q291L, A323G, V329E
light: not shown
notes: as for B1
B23: MB778 (antibody, mouse IgG1, kappa)
heavy: B1 heavy with V329E, S333K
light: not shown
notes: as for B1

One assay addresses T1, mouse FcγRIII. Nature of the assay: SPR (Biacore T200); KD of H237-MB630/MRAL-k0 / KD of variant. (In general: SPR reads the build-up and loss of mass on a sensor chip optically.)
For B1, the “Relative mFcγRIII-binding activity (MB630 = 1)” value came out at 1.05 fold.
B2: the “Relative mFcγRIII-binding activity (MB630 = 1)” value came out at 4.79 fold.
In the case of B3, the “Relative mFcγRIII-binding activity (MB630 = 1)” value is 4.09 fold.
On the same count and under the same terms, the same measure for B4: 6.43 fold; for B5: 2.89 fold.
As to B6, the “Relative mFcγRIII-binding activity (MB630 = 1)” value stood at 2.24 fold.
On to B7, for which the “Relative mFcγRIII-binding activity (MB630 = 1)” value worked out at 1.02 fold.
As for B8, the “Relative mFcγRIII-binding activity (MB630 = 1)” value was 3.46 fold.
Regarding B9, the “Relative mFcγRIII-binding activity (MB630 = 1)” value came to 1.87 fold.
Still for that read-out and setting: the same measure for B10: 1.02 fold; for B11: 4.34 fold.
Take B12: the “Relative mFcγRIII-binding activity (MB630 = 1)” value came out at 0.72 fold.
Take B13: the “Relative mFcγRIII-binding activity (MB630 = 1)” value came out at 3.33 fold.
For the molecule B14, the “Relative mFcγRIII-binding activity (MB630 = 1)” value was 2.29 fold.
Turning to B15, the “Relative mFcγRIII-binding activity (MB630 = 1)” value is 1.15 fold.
Same read-out and setting: the same measure for B16: 2.24 fold; for B17: 2.11 fold.
In the case of B18, the “Relative mFcγRIII-binding activity (MB630 = 1)” value worked out at 1.92 fold.
In the case of B19, the “Relative mFcγRIII-binding activity (MB630 = 1)” value was determined as 5.57 fold.
Consider B20, for which the “Relative mFcγRIII-binding activity (MB630 = 1)” value worked out at 0.77 fold.
The same measure, in the same setting: in the case of B21 it was 2.85 fold.
For B22, the “Relative mFcγRIII-binding activity (MB630 = 1)” value was determined as 3.4 fold.
For B23, the “Relative mFcγRIII-binding activity (MB630 = 1)” value is 0.65 fold.

In a further assay the target is T2, mouse FcγRII. Described as above.
Turning to B1, the “Relative mFcγRII-binding activity (MB630 = 1)” value was found to be 0.87 fold.
Take B2: the “Relative mFcγRII-binding activity (MB630 = 1)” value is 2.84 fold.
On the same count and under the same terms, the same measure for B3: 3.08 fold.
On the same count and under the same terms, in the case of B4 it was 3.7 fold.
For B5, the “Relative mFcγRII-binding activity (MB630 = 1)” value amounted to 1.96 fold.
As for B6, the “Relative mFcγRII-binding activity (MB630 = 1)” value worked out at 1.36 fold.
B7: the “Relative mFcγRII-binding activity (MB630 = 1)” value is 0.84 fold.
Consider B8, for which the “Relative mFcγRII-binding activity (MB630 = 1)” value was found to be 2.06 fold.
Regarding B9, the “Relative mFcγRII-binding activity (MB630 = 1)” value was determined as 1.69 fold.
As for B10, the “Relative mFcγRII-binding activity (MB630 = 1)” value worked out at 0.92 fold.
For the molecule B11, the “Relative mFcγRII-binding activity (MB630 = 1)” value stood at 2.82 fold.
B12: the “Relative mFcγRII-binding activity (MB630 = 1)” value worked out at 0.74 fold.
As to B13, the “Relative mFcγRII-binding activity (MB630 = 1)” value came to 2.5 fold.
With B14, the “Relative mFcγRII-binding activity (MB630 = 1)” value was found to be 1.86 fold.
Take B15: the “Relative mFcγRII-binding activity (MB630 = 1)” value worked out at 1.04 fold.
Consider B16, for which the “Relative mFcγRII-binding activity (MB630 = 1)” value was determined as 1.58 fold.
On to B17, for which the “Relative mFcγRII-binding activity (MB630 = 1)” value stood at 1.67 fold.
For B18, the “Relative mFcγRII-binding activity (MB630 = 1)” value turned out to be 1.44 fold.
On to B19, for which the “Relative mFcγRII-binding activity (MB630 = 1)” value is 3.55 fold.
Same read-out and setting: in the case of B20 it was 0.48 fold; in that of B21, 2.29 fold.
Still for that read-out and setting: the same measure for B22: 2.22 fold; for B23: 0.57 fold.

In a further assay the target is T1, mouse FcγRIII. Description: SPR (Biacore T200); KD of H237-mIgG1/MRAL-k0 / KD of variant.
Take B1: the “relative mFcγRIII-binding activity (mIgG1 = 1)” value turned out to be 0.18 fold.
Regarding B2, the “relative mFcγRIII-binding activity (mIgG1 = 1)” value was 0.82 fold.
As for B3, the “relative mFcγRIII-binding activity (mIgG1 = 1)” value came out at 0.7 fold.
On to B4, for which the “relative mFcγRIII-binding activity (mIgG1 = 1)” value was 1.1 fold.
For the molecule B5, the “relative mFcγRIII-binding activity (mIgG1 = 1)” value turned out to be 0.5 fold.
B6: the “relative mFcγRIII-binding activity (mIgG1 = 1)” value came to 0.38 fold.
Consider B7, for which the “relative mFcγRIII-binding activity (mIgG1 = 1)” value is 0.18 fold.
Consider B8, for which the “relative mFcγRIII-binding activity (mIgG1 = 1)” value was 0.59 fold.
On to B9, for which the “relative mFcγRIII-binding activity (mIgG1 = 1)” value is 0.43 fold.
For B10, the “relative mFcγRIII-binding activity (mIgG1 = 1)” value was 0.18 fold.
For the molecule B11, the “relative mFcγRIII-binding activity (mIgG1 = 1)” value came to 0.75 fold.
Turning to B12, the “relative mFcγRIII-binding activity (mIgG1 = 1)” value was determined as 0.17 fold.
For B13, the “relative mFcγRIII-binding activity (mIgG1 = 1)” value amounted to 0.57 fold.
Same read-out and setting: the same measure for B14: 0.39 fold.
As for B15, the “relative mFcγRIII-binding activity (mIgG1 = 1)” value was found to be 0.2 fold.
In the case of B16, the “relative mFcγRIII-binding activity (mIgG1 = 1)” value is 0.52 fold.
With B17, the “relative mFcγRIII-binding activity (mIgG1 = 1)” value came to 0.49 fold.
For B18, the “relative mFcγRIII-binding activity (mIgG1 = 1)” value came to 0.44 fold.
Consider B19, for which the “relative mFcγRIII-binding activity (mIgG1 = 1)” value turned out to be 0.96 fold.
For the molecule B20, the “relative mFcγRIII-binding activity (mIgG1 = 1)” value was determined as 0.13 fold.
For B21, the “relative mFcγRIII-binding activity (mIgG1 = 1)” value is 0.49 fold.
Same read-out and setting: the same measure for B22: 0.78 fold.
With B23, the “relative mFcγRIII-binding activity (mIgG1 = 1)” value is 0.11 fold.

Another assay deals with T2, mouse FcγRII. The description is as above.
Turning to B1, the “relative mFcγRII-binding activity (mIgG1 = 1)” value was 9.4 fold.
For B2, the “relative mFcγRII-binding activity (mIgG1 = 1)” value is 30.9 fold.
With B3, the “relative mFcγRII-binding activity (mIgG1 = 1)” value came out at 33.5 fold.
For the molecule B4, the “relative mFcγRII-binding activity (mIgG1 = 1)” value is 40.1 fold.
On the same count and under the same terms, the same measure for B5: 21.3 fold; for B6: 14.7 fold.
As for B7, the “relative mFcγRII-binding activity (mIgG1 = 1)” value was 9.1 fold.
For B8, the “relative mFcγRII-binding activity (mIgG1 = 1)” value was 22.4 fold.
As to B9, the “relative mFcγRII-binding activity (mIgG1 = 1)” value is 22.2 fold.
Regarding B10, the “relative mFcγRII-binding activity (mIgG1 = 1)” value came out at 10 fold.
For B11, the “relative mFcγRII-binding activity (mIgG1 = 1)” value worked out at 30.6 fold.
As to B12, the “relative mFcγRII-binding activity (mIgG1 = 1)” value was 9.7 fold.
On to B13, for which the “relative mFcγRII-binding activity (mIgG1 = 1)” value came to 27.2 fold.
Still for that read-out and setting: in the case of B14 it was 20.2 fold.
Consider B15, for which the “relative mFcγRII-binding activity (mIgG1 = 1)” value was 11.3 fold.
Turning to B16, the “relative mFcγRII-binding activity (mIgG1 = 1)” value amounted to 20.8 fold.
Same read-out and setting: in the case of B17 it was 21.9 fold; in that of B18, 19 fold.
With B19, the “relative mFcγRII-binding activity (mIgG1 = 1)” value amounted to 38.5 fold.
Same read-out and setting: in the case of B20 it was 5.2 fold; in that of B21, 24.9 fold; in that of B22, 29.2 fold.
Regarding B23, the “relative mFcγRII-binding activity (mIgG1 = 1)” value worked out at 6.1 fold.
